Data on 4 molecules can be found in PMC10139187, “Natural Isoforms of Listeria monocytogenes Virulence Factor Inlb Differ in c-Met Binding Efficiency and Differently Affect Uptake and Survival Listeria in Macrophage †” (International Journal of Molecular Sciences, 2023).

To fix the notation:
B2: idInlBCC9, internalin domain (receptor-binding domain) of InlB, isoform of clonal complex CC9 (lineage II) (domain or fragment)
chain: AKVQAETITVPTPIKQIFSDDAFAETIKDNLKKKSVTDAVTQNELNSIDQIIANNSDIKSVQGIQYLPNVTKLFLNGNKLTDIKPLANLKNLGWLFLDENKVKDLSSLKDLKKLKSLSLEHNGISDINGLVHLPQLESLYLGNNKITDITVLSRLTKLDTLSLEDNQISDIVPLAGLTKLQNLYLSKNHISDLRALAGLKNLDVLELFSQECLNKPINHQSNLVVPNTVKNTDGSLVTPEIISDDGDYEKPNVKWHLPEFTNEVSFIFYQPVTIGKAKARFHGRVTQPLKE
modifications: stained with RED-tris-NTA (on the His tag)
notes: 321 aa long; also called idInlB-His-Tag; source: E. coli BL21, purified (HisTrap FF Crude column, dialysed against PBS)

Holding throughout (experiment): MST; idInlB-His-Tag stained with RED-tris-NTA kept constant at 50 nM; unlabeled receptor in twofold dilutions from 0.076 nM to 2.5 uM; PBST (PBS with 0.05% Tween-20); Monolith NT.115, LED power 80%, MST power 40%; fitted to a 1:1 binding model; mean of three independent experiments
Assay [1] deals with idInlBCC1, internalin domain (receptor-binding domain) of InlB, isoform of clonal complex CC1 (lineage I) (Listeria monocytogenes).
In assay [2] the target is idInlBCC7, internalin domain (receptor-binding domain) of InlB, isoform of clonal complex CC7 (lineage II) (Listeria monocytogenes).
The target of assay [3] is B2. To be noted: both partners purified.
Assay [4] has as its target T1, chimeric protein HGFR/Fc (c-Met extracellular domain as part of a soluble chimera protein) (human, UniProt P08581 25-932).
T1 construct: Hepatocyte growth factor receptor (c-Met, HGFR), human, extracellular domain; natural c-Met is cut into an alpha and a beta chain, written here as one chain; also called human c-Met; source: bought: Sigma-Aldrich (H0536)
To be noted: both partners purified.

T1 sequence (P08581 25-932, change not shown): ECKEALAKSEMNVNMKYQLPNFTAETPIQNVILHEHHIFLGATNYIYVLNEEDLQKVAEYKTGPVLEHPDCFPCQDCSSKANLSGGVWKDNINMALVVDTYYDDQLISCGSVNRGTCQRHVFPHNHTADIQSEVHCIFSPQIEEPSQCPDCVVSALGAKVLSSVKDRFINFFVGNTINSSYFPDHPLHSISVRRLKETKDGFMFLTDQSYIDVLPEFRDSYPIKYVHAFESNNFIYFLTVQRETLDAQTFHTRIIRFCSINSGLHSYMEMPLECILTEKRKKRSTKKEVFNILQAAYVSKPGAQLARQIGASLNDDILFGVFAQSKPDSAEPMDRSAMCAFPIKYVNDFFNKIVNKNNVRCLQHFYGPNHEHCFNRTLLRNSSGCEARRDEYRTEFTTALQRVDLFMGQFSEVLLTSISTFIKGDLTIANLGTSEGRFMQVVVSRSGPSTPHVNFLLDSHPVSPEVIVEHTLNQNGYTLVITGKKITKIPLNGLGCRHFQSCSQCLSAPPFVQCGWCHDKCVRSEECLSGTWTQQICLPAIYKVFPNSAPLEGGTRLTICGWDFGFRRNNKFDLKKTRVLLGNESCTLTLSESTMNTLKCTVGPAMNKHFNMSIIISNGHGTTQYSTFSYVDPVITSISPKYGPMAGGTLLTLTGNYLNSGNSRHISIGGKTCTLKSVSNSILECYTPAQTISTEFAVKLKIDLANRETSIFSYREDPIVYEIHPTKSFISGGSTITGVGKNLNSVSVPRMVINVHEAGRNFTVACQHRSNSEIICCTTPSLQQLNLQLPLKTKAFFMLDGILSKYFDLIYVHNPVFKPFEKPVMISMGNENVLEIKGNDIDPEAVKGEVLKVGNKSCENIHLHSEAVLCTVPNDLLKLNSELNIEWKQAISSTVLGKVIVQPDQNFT

On to “chimeric protein HGFR/Fc (c-Met extracellular domain as part of a soluble chimera protein) (from UniProt P08581 25-932) (Fc fusion)”, for which the dissociation constant Kd (commonly the free concentration of one partner at which half of the binding sites on the other are occupied at equilibrium, for simple one-to-one binding) in assay [1] is 7.4 nM; in assay [2], 58.7 nM.

“gC1qR (human) (from UniProt Q07021 74-282) (receptor)”: the values for the Kd in assay [1] and in assay [2] were 7.4 nM and 10.2 nM, respectively.

B1: gC1qR (human) (receptor)
chain: LHTDGDKAFVDFLSDEIKEERKIQKHKTLPKMSGGWELELNGTEAKLVRKVAGEKITVTFNINNSIPPTFDGEEEPSQGQKVEEQEPELTSTPNFVVEVIKNDDGKKALVLDCHYPEDEVGQEDEAESDIFSIREVSFQSTGESEWKDTNYTLNTDSLDWALYDHLMDFLADRGVDNTFADELVELSTALEHQEYITFLEDLKSFVKSQ
notes: gC1qR (receptor of the globular heads of C1q), human; the catalogue number may tell them; also called human gC1qR; source: bought: Invitrogen (#11874H08E25)
Regarding B1, the Kd in assay [3] is 21.5 nM.

Turning to B2, the equilibrium dissociation constant (Kd) in assay [4] was found to be 93.6 nM.
